“Also recorded” adds a separate entry of the source.
Experiments:
[1] = molecular target: T1, integrin αvβ6 (BxPC-3 cells) (Homo sapiens, UniProt P06756+P18564); test: Competition binding assay, BxPC-3
T1 construct: endogenous in cells; host or cells: BxPC-3 (whole adherent cells)
Method: The reaction volume was made up to 30 µl with water. The reaction was carried out for 10 minutes at 80°C.
For competitive radioligand binding assay, approximately 50,000 cells (BxPC-3 or Capan-2) per well were seeded in a 96 well plate incubated overnight at 37°C. […] After 2 hours of incubation, cells were washed for 2-3 times with ice-cold washing buffer (50 mM Tris-HCl, pH 7.4, 125 mM NaCl, 0.05% BSA) and lysed with 1 N NaOH (80 µl/well). The lysed cells were transferred to vials and measured in a gamma counter (Wallac 1470 Wizard, Perkin Elmer, Waltham, MA, USA). Obtained cpm values were plotted with GraphPad Prism and the data fitted using nonlinear regression (one site - fit Ki, one site - fit logIC50).
All statistical analyses were performed using GraphPad Prism 5.04. IC50 values were determined by nonlinear sigmoidal curve fitting with variable slope setting. All presented data are based on independent experiments. Numerical data for this study have been deposited in an open data repository for public access: http://doi.org/10.5281/zenodo.4362503.

[2] = Dosimetric calculation for human adult male (OLINDA/EXM 1.1)
Excerpt: Assuming that the organ-to-whole-body activity concentration ratio in mice would equal that in humans, the injected activity concentration (%IA/g) acquired from the mouse biodistribution study was transformed to human whole-organ percentage of injected activity per gram of tissue (%IA/g) human. The mouse uptake data were extrapolated to humans by relative scaling of mass and time using the following two equations,
(1) (%IA/organ)human=[(%IA/g)mouse×Mmouse(kg)×[m(g)/M(kg)]human
(2) thuman=tanimal[Mhuman/Manimal]^0.25
where %IA/g is percentage of injected activity per gram of tissue, %IA/organ is percentage of injected activity per organ; m is organ mass of mouse or human, M is body mass of mouse or human; t is time. The absorbed doses per activity were calculated by using the extrapolated human source organ residence times as input in the OLINDA/EXM 1.1 software (Organ Level Internal Dose Assessment Code, Vanderbilt University, Nashville, USA), with the reference adult male ([25]).

Capan-2 xenografts = test: in vivo; conditions: for Kidney uptake / Blood activity: ~1 MBq i.v.
Excerpt: For in vivo experiments, at least 8-week-old female athymic NMRI-Foxn1^nu/Foxn1^nu mice (Janvier Labs, Saint-Berthevin, France) were used. Animal care followed institutional guidelines and all experiments were approved by local animal research authorities. For the generation of tumor xenografts, 5 x 10^6 cells of Capan-2 cells were inoculated subcutaneously into the left and right shoulder (1:1 phosphate-buffered saline [PBS]/Matrigel Basement Membrane Matrix High Concentration, Corning, Corning, USA). Tumors were allowed to grow for two to four weeks (tumor volume > 100 mm^3) after cell inoculation.
Radiolabeling of the DOTA-integrin αvβ6 knottin was carried out manually using [^177Lu]LuCl3 and a reagent kit from ITG Isotope Technologies Garching GmbH (Garching, Germany). A total of 40 µL (stock solution of peptide at 1 µg/µL in 10% DMSO in water) was added to 500 µL of ascorbate buffer solution pH 5.0, prepared from the kit (composition not disclosed by vendor) and the resulting mixture was then added to 35 µL of [^177Lu]LuCl3 (2 GBq in aqueous 0.04 M HCl) and the reaction mixture was heated at 80 °C for 35 minutes followed by cooling for 10 minutes at room temperature. The product was then diluted with 0.5 mL of saline and the pH was adjusted to 7 using a 1 M aqueous solution of NaHCO3 prior to injection in mice. A reverse-phase HPLC system (Knauer GmbH, Germany) with a column (Eurospher II, C18, 250 × 4 mm) was used to determine the radiochemical purity of the radiotracer. The HPLC system was equipped with an Azura P.6.1L pump coupled with ultraviolet (Azura UVD 2.1L) and radiometric (γ-Raytest-Isotopenmessgeraete GmbH, Germany) detectors. The gradient elution system used mobile phase A (100% acetonitrile) and mobile phase B (deionized H2O containing 0.1% trifluoroacetic acid) and a flow rate of 1.0 mL/min. Starting with 0% A and 100% B, the gradient was increased to 100% A over 25 min and finally returned to initial gradient conditions within 5 min.
Tumor-bearing mice (n=4-5 per time point) were injected with approximately 1 MBq (22 pmol) of ^177Lu-DOTA-integrin αvβ6 knottin to the tail vein via a catheter. Mice (n=4-5 per time point) were sacrificed and dissected one, two, three and eight days post injection. Tumor, blood, stomach, pancreas, small intestine, colon, liver, spleen, kidney, heart, lung, muscle and femur samples were weighed and uptake of radioactivity was measured by a gamma counter.

[3] = adult male human, extrapolated from mouse biodistribution
[4] = 192 h p.i., nude mice, Capan-2 xenografts, mean ± SD (4 ≤ n ≤ 5)

T1 sequence (P06756 31-889 limits assumed): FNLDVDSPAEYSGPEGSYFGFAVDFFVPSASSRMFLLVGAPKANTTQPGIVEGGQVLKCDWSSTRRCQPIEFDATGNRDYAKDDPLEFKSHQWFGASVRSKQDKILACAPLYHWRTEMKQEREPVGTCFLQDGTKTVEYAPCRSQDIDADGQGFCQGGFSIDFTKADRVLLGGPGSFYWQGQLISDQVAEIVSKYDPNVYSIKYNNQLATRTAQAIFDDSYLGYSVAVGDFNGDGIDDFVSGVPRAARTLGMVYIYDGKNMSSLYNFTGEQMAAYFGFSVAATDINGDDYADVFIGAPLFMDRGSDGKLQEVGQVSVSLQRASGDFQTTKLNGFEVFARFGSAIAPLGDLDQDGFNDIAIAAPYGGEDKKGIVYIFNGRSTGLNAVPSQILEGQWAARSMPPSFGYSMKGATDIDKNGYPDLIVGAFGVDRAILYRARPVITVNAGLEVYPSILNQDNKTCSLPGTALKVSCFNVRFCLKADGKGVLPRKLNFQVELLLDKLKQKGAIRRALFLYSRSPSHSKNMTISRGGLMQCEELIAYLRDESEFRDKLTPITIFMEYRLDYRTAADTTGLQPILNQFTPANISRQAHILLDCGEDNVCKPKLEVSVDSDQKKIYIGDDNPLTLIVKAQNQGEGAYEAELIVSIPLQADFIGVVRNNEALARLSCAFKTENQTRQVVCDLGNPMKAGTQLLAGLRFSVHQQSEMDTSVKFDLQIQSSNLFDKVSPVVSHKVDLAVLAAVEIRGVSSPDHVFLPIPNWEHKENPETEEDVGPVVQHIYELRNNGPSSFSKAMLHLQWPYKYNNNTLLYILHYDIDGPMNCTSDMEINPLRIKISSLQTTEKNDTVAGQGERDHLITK
T1 sequence (P06756 891-1048 partner limits assumed): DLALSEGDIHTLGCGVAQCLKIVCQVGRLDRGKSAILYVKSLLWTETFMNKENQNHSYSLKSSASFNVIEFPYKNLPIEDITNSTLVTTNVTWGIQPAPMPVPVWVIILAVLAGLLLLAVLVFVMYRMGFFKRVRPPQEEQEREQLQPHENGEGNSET
T1 sequence (P18564 22-788): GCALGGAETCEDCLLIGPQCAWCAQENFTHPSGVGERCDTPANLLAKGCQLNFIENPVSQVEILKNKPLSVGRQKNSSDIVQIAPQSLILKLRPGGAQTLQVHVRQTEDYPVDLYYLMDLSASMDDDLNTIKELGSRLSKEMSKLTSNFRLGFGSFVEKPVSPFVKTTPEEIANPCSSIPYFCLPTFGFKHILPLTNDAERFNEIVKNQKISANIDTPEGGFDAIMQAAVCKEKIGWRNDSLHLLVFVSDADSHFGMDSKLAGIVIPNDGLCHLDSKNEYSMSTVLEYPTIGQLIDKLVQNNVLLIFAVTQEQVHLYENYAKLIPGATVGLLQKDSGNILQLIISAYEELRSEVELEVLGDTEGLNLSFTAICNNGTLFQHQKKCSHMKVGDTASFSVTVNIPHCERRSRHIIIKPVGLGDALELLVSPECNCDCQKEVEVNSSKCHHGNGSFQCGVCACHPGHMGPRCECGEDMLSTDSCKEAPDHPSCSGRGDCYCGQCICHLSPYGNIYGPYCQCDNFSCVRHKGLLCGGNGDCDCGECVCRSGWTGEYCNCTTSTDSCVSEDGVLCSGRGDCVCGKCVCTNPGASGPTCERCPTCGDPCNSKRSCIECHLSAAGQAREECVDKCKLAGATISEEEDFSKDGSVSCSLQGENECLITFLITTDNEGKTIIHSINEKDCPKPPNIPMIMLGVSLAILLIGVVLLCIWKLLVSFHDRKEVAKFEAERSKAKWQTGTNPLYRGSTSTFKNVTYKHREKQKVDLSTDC

SMILES: CC[C@H](C)[C@@H]1NC(=O)[C@@H](NC(=O)CNC(=O)CN2CCN(CC(=O)O)CCN(CC(=O)O)CCN(CC(=O)O)CC2)CSSC[C@@H]2NC(=O)[C@H](C)NC(=O)CNC(=O)[C@@H]3CCCN3C(=O)[C@@H]3CSSC[C@@H](C(=O)NCC(=O)O)NC(=O)[C@H](Cc4ccc(O)cc4)NC(=O)CNC(=O)[C@H](CC(N)=O)NC(=O)CNC(=O)[C@H](CCCNC(=N)N)NC(=O)[C@H](CSSC[C@H](NC(=O)[C@H](CCCNC(=N)N)NC(=O)[C@H](Cc4ccccc4)NC(=O)[C@H](CC(C)C)NC(=O)[C@H](CC(C)C)NC(=O)[C@H]([C@@H](C)O)NC(=O)CNC(=O)[C@H](CC(C)C)NC(=O)[C@H](CC(=O)O)NC(=O)[C@H]([C@@H](C)O)NC(=O)[C@H](CCCNC(=N)N)NC(=O)CNC(=O)[C@H](CC(N)=O)NC(=O)[C@H](CC(C)C)NC1=O)C(=O)N[C@@H](CCCNC(=N)N)C(=O)N[C@@H](CCCNC(=N)N)C(=O)N[C@@H](CC(=O)O)C(=O)N[C@@H](CO)C(=O)N[C@@H](CC(=O)O)C(=O)N3)NC(=O)[C@H]([C@@H](C)CC)NC2=O [^177Lu-DOTA-integrin αvβ6 knottin, metal not drawn]
- Binding affinity of the ^177Lu tracer [1]: low single-digit nanomolar range; also recorded: high affinity and specific binding to target-positive cells and tumors
- Expected absorbed dose, Liver [2, 3]: 9.34E-04 mSv/MBq
- Expected absorbed dose, Thymus [2, 3]: 5.08E-06 rem/mCi
- Dose-limiting organ ([2]; human projection, preliminary): The absorbed doses in the kidney propose it as the dose-limiting organ
- Tumor uptake (Capan-2 xenografts; 24 h p.i., ~1 MBq (22 pmol) i.v., nude mice, Capan-2 xenografts, mean ± SD (4 ≤ n ≤ 5)): 3.13 ± 0.63 %IA/g
- Kidney uptake (Capan-2 xenografts; 24 h p.i., nude mice, Capan-2 xenografts, mean ± SD (4 ≤ n ≤ 5)): 19.2 ± 2.5 %IA/g
- Blood activity (Capan-2 xenografts; 48 h p.i., nude mice, Capan-2 xenografts, mean ± SD (4 ≤ n ≤ 5)): 0.00 %IA/g
- Blood activity (Capan-2 xenografts; [4]): 0.00 %IA/g
- Kidney uptake (Capan-2 xenografts; [4]): 2.3 ± 0.40 %IA/g
- Tumor uptake compared with ^64Cu conjugate (Capan-2 xenografts; comparison with earlier study, cited there as [19]): tumor uptake was not found to be higher
- Kidney wash-out versus tumor (ex vivo) (Capan-2 xenografts; days 1, 2, 3 and 8 p.i., listed as 177Lu tracer): in the tumor the activity was cleared at a much lower rate than in the kidney
- Activity in organs like stomach, colon and lung (Capan-2 xenografts; later time points): low or moderate activity

From publication PMC8200818, “SPECT/CT Imaging, Biodistribution and Radiation Dosimetry of a ^177Lu-DOTA-Integrin αvβ6 Cystine Knot Peptide in a Pancreatic Cancer Xenograft Model” (Frontiers in Oncology, 2021)
